We go through 38 sequences from the supplement of paper PMC7877785.

± gives the uncertainty stated by the source.

The series can be described thus: self-splicing fitness, log relative to wild type (ln ratio); higher = more splicing; Tetrahymena group I intron in knt gene, E. coli kanamycin selection, DiMSum; sequences stand for … in CUCUCU…GGAGGGAAAAGUUAUCAGGCAUGCACCUGGUAGCUAGUCUUUAAACCAAUAGAUUGCAUCGGUUUAAAAGGCAAGACCGUCAAAUUGCGGGAAAGGGGUCAACAGCCGUUCAGUACCAAGUCUCAGGGGAAACUUUGAGAUGGCCUUGCAAAGGGUAUGGUAAUAAGCUGACGGACAUGGUCCUAACCACGCAGCCAAGUCCUAAGUCAACAGAUCUUCUGUUGAUAUGGAUGCAGUUCACAGACUAAAUGUCGGUCGGGGAAGAUGUAUUCUUCUCAUAAGAUAUAGUCGGACCUCUCCUUAAUGGGAGCUAGCGGAUGAAGUGAUGCAACACUGGAGCCGCUGGGAACUAAUUUGUAUGCGAAAGUAUAUUGAUUAGUUUUGGAGUACUCGUGGUCG
Put shortly:
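A randomised library covering all eight P1ex-region intron nucleotides was built with the intron in the knt kanamycin-resistance gene on pET-22b(+) and held in E. coli BL21(DE3). Cells were grown overnight at 37°C or 30°C on LB agar, with or without 25 μg/mL kanamycin, plus 100 μg/mL carbenicillin, 50 μM IPTG and 0.2% rhamnose, and pooled colonies were amplicon-sequenced on an Illumina HiSeq 2500. DiMSum fitness is the error-weighted combination of wild-type-normalised replicate fold changes, kanamycin versus none.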

For GCAAAGCAAUAUUACGAUGC, the “self-splicing fitness (ln)” value (30 °C) is -3.46 ± 0.24 and the “self-splicing fitness (ln)” value (37 °C) is -2.53 ± 0.32.

For the sequence GCAAAGCAAUAUUACGCAGA, the “self-splicing fitness (ln)” value (37 °C) was -2.76 ± 0.3.

In the case of GCAAAGCAAUAUUACGCAGG, the “self-splicing fitness (ln)” value is -2.33 ± 0.13 (30 °C) and -2.02 ± 0.19 (37 °C).

In the case of GCAAAGCAAUAUUACGCCUG, the “self-splicing fitness (ln)” value is, setting by setting: (30 °C) -2.21 ± 0.1; (37 °C) -1.12 ± 0.12.

As to GCAAAGCAAUAUUACGGAAA, the “self-splicing fitness (ln)” value is -1.88 ± 0.18 (30 °C) and -1.66 ± 0.19 (37 °C).

With GCAAAGCAAUAUUACGGCAU, the “self-splicing fitness (ln)” value reads like this: (30 °C) -0.675 ± 0.095; (37 °C) 0.0956 ± 0.1.

In the case of GCAAAGCAAUAUUACGGGCU, the “self-splicing fitness (ln)” value was -2.56 ± 0.12 (30 °C) and -2.45 ± 0.2 (37 °C).

Turning to GCAAAGCAAUAUUACGGGGG, the “self-splicing fitness (ln)” value was -3.28 ± 0.2 (30 °C) and -1.87 ± 0.18 (37 °C).

Regarding GCAAAGCAAUAUUACGGGGU, the “self-splicing fitness (ln)” value reads like this: (30 °C) -3.73 ± 0.15; (37 °C) -2.5 ± 0.15.

With GCAAAGCAAUAUUACGGUCU, the “self-splicing fitness (ln)” value was -1.38 ± 0.087 (30 °C) and 0.608 ± 0.1 (37 °C).

For GCAAAGCAAUAUUACGGUGA, the “self-splicing fitness (ln)” value was -0.987 ± 0.079 (30 °C) and 0.221 ± 0.098 (37 °C).

Regarding GCAAAGCAAUAUUACGUAGA, the “self-splicing fitness (ln)” value was -1.64 ± 0.074 (30 °C) and -1.13 ± 0.095 (37 °C).

Consider GCAAAGCAAUAUUACGUAGG, for which the “self-splicing fitness (ln)” value runs as follows: (30 °C) -1.52 ± 0.05; (37 °C) -0.897 ± 0.074.

In the case of GCAAAGCAAUAUUACGUAUG, the “self-splicing fitness (ln)” value was -2.9 ± 0.11 (30 °C) and -2.71 ± 0.2 (37 °C).

Consider GCAAAGCAAUAUUACGUAUU, for which the “self-splicing fitness (ln)” value reads like this: (30 °C) -2.65 ± 0.075; (37 °C) -1.29 ± 0.081.

As to GCAAAGCAAUAUUACGUCAU, the “self-splicing fitness (ln)” value (30 °C) was -2.25 ± 0.096 and the “self-splicing fitness (ln)” value (37 °C) was -1.37 ± 0.091.

With GCAAAGCAAUAUUACGUCGA, the “self-splicing fitness (ln)” value (30 °C) is -1.83 ± 0.091 and the “self-splicing fitness (ln)” value (37 °C) was -0.578 ± 0.094.

For GCAAAGCAAUAUUACGUUGU, the “self-splicing fitness (ln)” value is -3.71 ± 0.15 (30 °C) and -2.99 ± 0.15 (37 °C).

GCAAAGCAAUAUUACGUUUU: the “self-splicing fitness (ln)” value runs as follows: (30 °C) -2.95 ± 0.11; (37 °C) -3 ± 0.18.

Regarding GCACAGCAAUAUUACGAAUU, the “self-splicing fitness (ln)” value (30 °C) is -1.19 ± 0.077 and the “self-splicing fitness (ln)” value (37 °C) is -0.471 ± 0.085.

GCACAGCAAUAUUACGAGCC: the “self-splicing fitness (ln)” value is -3.2 ± 0.28 (30 °C) and -2.01 ± 0.23 (37 °C).

As to GCACAGCAAUAUUACGAGUC, the “self-splicing fitness (ln)” value by setting is: (30 °C) -2.62 ± 0.069; (37 °C) -1.29 ± 0.065.

In the case of GCACAGCAAUAUUACGAGUU, the “self-splicing fitness (ln)” value by setting is: (30 °C) -1.81 ± 0.057; (37 °C) -0.499 ± 0.072.

Turning to GCACAGCAAUAUUACGAUCA, the “self-splicing fitness (ln)” value is -0.983 ± 0.13 (30 °C) and -0.209 ± 0.14 (37 °C).

Consider GCACAGCAAUAUUACGCACG, for which the “self-splicing fitness (ln)” value reads like this: (30 °C) -2.06 ± 0.11; (37 °C) -0.889 ± 0.1.

Turning to GCACAGCAAUAUUACGCCAU, the “self-splicing fitness (ln)” value by setting is: (30 °C) -3.37 ± 0.12; (37 °C) -2.42 ± 0.12.

GCACAGCAAUAUUACGCCUG: the “self-splicing fitness (ln)” value reads like this: (30 °C) -1.28 ± 0.087; (37 °C) -0.89 ± 0.1.

Take GCACAGCAAUAUUACGCGUC: the “self-splicing fitness (ln)” value is, setting by setting: (30 °C) -3.73 ± 0.2; (37 °C) -0.646 ± 0.098.

As for GCACAGCAAUAUUACGCUCA, the “self-splicing fitness (ln)” value runs as follows: (30 °C) -1.08 ± 0.088; (37 °C) -0.585 ± 0.1.

Take GCACAGCAAUAUUACGCUUC: the “self-splicing fitness (ln)” value (30 °C) is -2.21 ± 0.094 and the “self-splicing fitness (ln)” value (37 °C) is -1.3 ± 0.098.

As for GCACAGCAAUAUUACGGCUU, the “self-splicing fitness (ln)” value by setting is: (30 °C) -0.432 ± 0.054; (37 °C) -0.0629 ± 0.064.

As to GCACAGCAAUAUUACGGUUA, the “self-splicing fitness (ln)” value is, setting by setting: (30 °C) -0.902 ± 0.055; (37 °C) -0.384 ± 0.059.

Consider GCACAGCAAUAUUACGUUAA, for which the “self-splicing fitness (ln)” value is -1.04 ± 0.055 (30 °C) and -0.544 ± 0.065 (37 °C).

Turning to GCACAGCAAUAUUACGUUUU, the “self-splicing fitness (ln)” value runs as follows: (30 °C) -1.14 ± 0.046; (37 °C) -0.268 ± 0.065.

With GCAGAGCAAUAUUACGAACA, the “self-splicing fitness (ln)” value (30 °C) is -3.11 ± 0.4.

For GCAGAGCAAUAUUACGACGU, the “self-splicing fitness (ln)” value (30 °C) was -0.995 ± 0.14 and the “self-splicing fitness (ln)” value (37 °C) was -1.5 ± 0.18.

In the case of GCAGAGCAAUAUUACGAUUG, the “self-splicing fitness (ln)” value (30 °C) was -4.02 ± 0.28 and the “self-splicing fitness (ln)” value (37 °C) is -2.95 ± 0.23.

On to GCAGAGCAAUAUUACGCACA, for which the “self-splicing fitness (ln)” value (30 °C) is -2.09 ± 0.24.
